This note sets out measurements from PMC5842622, “The Entamoeba histolytica TBP and TRF1 transcription factors are GAAC-box binding proteins, which display differential gene expression under different stress stimuli and during the interaction with ma”.

What all share (conditions): protein: recombinant; tags: His tag; label: 5'-32P; blunt
Series [1] deals with T1, rEhTBP (TATA-box binding protein) (Entamoeba histolytica, UniProt P52653 1-234).
T1 sequence: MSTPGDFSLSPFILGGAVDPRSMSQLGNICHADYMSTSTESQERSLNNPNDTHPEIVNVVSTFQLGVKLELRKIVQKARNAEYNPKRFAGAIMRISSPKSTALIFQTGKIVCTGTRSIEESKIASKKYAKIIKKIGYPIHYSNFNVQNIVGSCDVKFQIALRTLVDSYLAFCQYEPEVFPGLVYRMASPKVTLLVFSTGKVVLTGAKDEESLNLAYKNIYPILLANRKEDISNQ
Nature of the series: EMSA; 4 C, 1 mM MgCl2; EMSA: 12 mM Hepes pH 7.9, 60 mM KCl, 1 mM each DTT, EDTA, spermidine and MgCl2, 10% glycerol, poly(dG-dC) 1 ug/ul, 10 min at 4 C; probe 557 pM (TATA), 64 pM (GAAC) or 82 pM (GAAC-like).

Series [2] has as its target T2, rEhTRF1 (TBP-related factor 1) (Entamoeba histolytica, UniProt A7UFC2 1-216).
T2 sequence: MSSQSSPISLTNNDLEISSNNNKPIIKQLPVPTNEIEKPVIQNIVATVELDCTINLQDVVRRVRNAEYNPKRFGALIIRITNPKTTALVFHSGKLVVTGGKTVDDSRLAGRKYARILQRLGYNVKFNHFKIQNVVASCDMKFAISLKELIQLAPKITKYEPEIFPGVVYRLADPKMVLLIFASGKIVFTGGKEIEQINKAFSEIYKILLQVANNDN
Described as above.

Series [3] addresses T2, rEhTRF1 (TBP-related factor 1). Nature of the series: EMSA; specifically competed; EMSA: 12 mM Hepes pH 7.9, 60 mM KCl, 1 mM each DTT, EDTA, spermidine and MgCl2, 10% glycerol, poly(dG-dC) 1 ug/ul, 10 min at 4 C; probe 557 pM (TATA), 64 pM (GAAC) or 82 pM (GAAC-like).
Series [4] has as its target T1, rEhTBP (TATA-box binding protein). Nature of the series: EMSA; complex barely competed by specific competitor; EMSA: 12 mM Hepes pH 7.9, 60 mM KCl, 1 mM each DTT, EDTA, spermidine and MgCl2, 10% glycerol, poly(dG-dC) 1 ug/ul, 10 min at 4 C; probe 557 pM (TATA), 64 pM (GAAC) or 82 pM (GAAC-like).

B1: TAgTgAAA (2) (dsDNA)
DNA 1: AATTCTCTAGTGAAAGAGAATT
DNA 2: AATTCTCTTTCACTAGAGAATT
Turning to B1, the dissociation constant (Kd) came out at 0.0398 nM in series [1] and 0.013 nM in series [2].

B2: cAcTTAAA (9) (dsDNA)
DNA 1: AATTCTCCACTTAAAGAGAATT
DNA 2: AATTCTCTTTAAGTGGAGAATT
As to B2, in series [1], the binding result is listed as “no binding”. For the same molecule, the Kd in series [2] was 0.00972 nM.

B3: cAcTcAAA (8) (dsDNA)
DNA 1: AATTCTCCACTCAAAGAGAATT
DNA 2: AATTCTCTTTGAGTGGAGAATT
With B3, the dissociation constant (Kd) came to 0.038 nM in series [1] and 0.0308 nM in series [2].

B4: gAgTTAAA (6) (dsDNA)
DNA 1: AATTCTCGAGTTAAAGAGAATT
DNA 2: AATTCTCTTTAACTCGAGAATT
As to B4, the Kd in series [1] was determined as 0.00473 nM; in series [2], 0.00685 nM.

B5: TATTaAAA (4) (dsDNA)
DNA 1: AATTCTCTATTAAAAGAGAATT
DNA 2: AATTCTCTTTTAATAGAGAATT
On to B5, for which the Kd in series [1] was 0.00485 nM; in series [2], 0.00398 nM.

B6: TATTTAAA (1) (dsDNA)
DNA 1: AATTCTCTATTTAAAGAGAATT
DNA 2: AATTCTCTTTAAATAGAGAATT
B6: the results for the Kd in series [1] and in series [2] were 0.0207 nM and 0.0529 nM, respectively.

B7: GAAC-box (wild type) (dsDNA)
DNA 1: AAGACAATGAACTAGAATG
DNA 2: CATTCTAGTTCATTGTCTT
With B7, the values for the Kd in series [1] and in series [2] were 0.019 nM and 0.0794 nM, respectively.

B8: TATTggAA (3) (dsDNA)
DNA 1: AATTCTCTATTGGAAGAGAATT
DNA 2: AATTCTCTTCCAATAGAGAATT
For B8, the Kd in series [1] is 0.0357 nM; in series [2], 0.0135 nM.

B9: GAAC-like box (dsDNA)
DNA 1: AGGCGAACTACAAAAGAT
DNA 2: ATCTTTTGTAGTTCGCCT
As for B9, the binding result in series [3] and in series [4] was “binds” in each case.

B10: TATTTttt (10) (dsDNA)
DNA 1: AATTCTCTATTTTTTGAGAATT
DNA 2: AATTCTCAAAAAATAGAGAATT
As for B10, the Kd in series [1] turned out to be 0.0034 nM; in series [2], 0.0254 nM.

B11: TAcTcAAA (7) (dsDNA)
DNA 1: AATTCTCTACTCAAAGAGAATT
DNA 2: AATTCTCTTTGAGTAGAGAATT
B11: the figures for the dissociation constant (Kd) in series [1] and in series [2] were 0.00276 nM and 0.0298 nM, respectively.

B12: TATgTAAA (5) (dsDNA)
DNA 1: AATTCTCTATGTAAAGAGAATT
DNA 2: AATTCTCTTTACATAGAGAATT
As to B12, the Kd in series [1] stood at 0.00169 nM; in series [2], 0.00674 nM.
